± gives the standard deviation of the averaged measurements.
What was measured:
[1] = tested on: MCF7; assay: percentage of EdU-negative (G0-arrested) nuclei per well, 72 h; higher = more G0 arrest; conditions: reference: sequence is the full UniProt precursor, the tested protein was the secreted form or ectodomain
[2] = tested on: hTERT-HMEC; assay: as above; conditions: reference: sequence is the full UniProt precursor, the tested protein was the secreted form or ectodomain
[3] = protein concentration 0.0225 µM
[4] = protein concentration 0.03125 µM
[5] = protein concentration 0.3125 µM
[6] = protein concentration 0.0205 µM
[7] = protein concentration 0.00925 µM
[8] = protein concentration 0.0925 µM
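Further: secreted proteins added to cultured cells, EdU pulse at the end, nuclei found by Hoechst imaging, EdU status from nuclear versus surrounding ring intensity ratio, PBS as neutral control.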

## MLPPWTLGLLLLATVRGKEVCYGQLGCFSDEKPWAGTLQRPVKLLPWSPEDIDTRFLLYTNENPNNFQLITGTEPDTIEASNFQLDRKTRFIIHGFLDKAEDSWPSDMCKKMFEVEKVNCICVDWRHGSRAMYTQAVQNIRVVGAETAFLIQALSTQLGYSLEDVHVIGHSLGAHTAAEAGRRLGGRVGRITGLDPAGPCFQDEPEEVRLDPSDAVFVDVIHTDSSPIVPSLGFGMSQKVGHLDFFPNGGKEMPGCKKNVLSTITDIDGIWEGIGGFVSCNHLRSFEYYSSSVLNPDGFLGYPCASYDEFQESKCFPCPAEGCPKMGHYADQFKGKTSAVEQTFFLNTGESGNFTSWRYKISVTLSGKEKVNGYIRIALYGSNENSKQYEIFKGSLKPDASHTCAIDVDFNVGKIQKVKFLWNKRGINLSEPKLGASQITVQSGEDGTEYNFCSSDTVEENVLQSLYPC
[1]; [3]
  percentage of EdU-negative: 25.9 ± 0.35%
[1]; protein concentration 0.225 µM
  percentage of EdU-negative: 26.41 ± 0.1%
[2]; [3]
  percentage of EdU-negative: 4.69 ± 0.62%
[2]; protein concentration 0.225 µM
  percentage of EdU-negative: 5.7 ± 0.076%

## MLPRVGCPALPLPPPPLLPLLLLLLGASGGGGGARAEVLFRCPPCTPERLAACGPPPVAPPAAVAAVAGGARMPCAELVREPGCGCCSVCARLEGEACGVYTPRCGQGLRCYPHPGSELPLQALVMGEGTCEKRRDAEYGASPEQVADNGDDHSEGGLVENHVDSTMNMLGGGGSAGRKPLKSGMKELAVFREKVTEQHRQMGKGGKHHLGLEEPKKLRPPPARTPCQQELDQVLERISTMRLPDERGPLEHLYSLHIPNCDKHGLYNLKQCKMSLNGQRGECWCVNPNTGKLIQGAPTIRGDPECHLFYNEQQEARGVHTQRMQ
[1]; [4]
  percentage of EdU-negative: 27.7 ± 2.4%
[1]; [5]
  percentage of EdU-negative: 31.1 ± 3.1%
[2]; [4]
  percentage of EdU-negative: 4.88 ± 1%
[2]; [5]
  percentage of EdU-negative: 6.96 ± 0.2%

## MLPWLLVFSALGIQAWGDSSWNKTQAKQVSEGLQYLFENISQLTEKGLPTDVSTTVSRKAWGAEAVGCSIQLTTPVNVLVIHHVPGLECHDQTVCSQRLRELQAHHVHNNSGCDVAYNFLVGDDGRVYEGVGWNIQGVHTQGYNNISLGFAFFGTKKGHSPSPAALSAMENLITYAVQKGHLSSSYVQPLLGKGENCLAPRQKTSLKKACPGVVPRSVWGARETHCPRMTLPAKYGIIIHTAGRTCNISDECRLLVRDIQSFYIDRLKSCDIGYNFLVGQDGAIYEGVGWNVQGSSTPGYDDIALGITFMGTFTGIPPNAAALEAAQDLIQCAMVKGYLTPNYLLVGHSDVARTLSPGQALYNIISTWPHFKH [Q96LB8]
[1]; [3]
  percentage of EdU-negative: 24.7 ± 0.28%
[1]; protein concentration 0.225 µM
  percentage of EdU-negative: 25 ± 1.5%
[2]; [3]
  percentage of EdU-negative: 5.75 ± 0.76%
[2]; protein concentration 0.225 µM
  percentage of EdU-negative: 6.41 ± 1.2%

## MLPWTALGLALSLRLALARSGAERGPPASAPRGDLMFLLDSSASVSHYEFSRVREFVGQLVAPLPLGTGALRASLVHVGSRPYTEFPFGQHSSGEAAQDAVRASAQRMGDTHTGLALVYAKEQLFAEASGARPGVPKVLVWVTDGGSSDPVGPPMQELKDLGVTVFIVSTGRGNFLELSAAASAPAEKHLHFVDVDDLHIIVQELRGSILDAMRPQQLHATEITSSGFRLAWPPLLTADSGYYVLELVPSAQPGAARRQQLPGNATDWIWAGLDPDTDYDVALVPESNVRLLRPQILRVRTRPGEAGPGASGPESGAGPAPTQLAALPAPEEAGPERIVISHARPRSLRVSWAPALGSAAALGYHVQFGPLRGGEAQRVEVPAGRNCTTLQGLAPGTAYLVTVTAAFRSGRESALSAKACTPDGPRPRPRPVPRAPTPGTASREP [Q6PCB0]
[1]; [6]
  percentage of EdU-negative: 26.5 ± 2.2%
[1]; protein concentration 0.205 µM
  percentage of EdU-negative: 27.6 ± 0.87%
[2]; [6]
  percentage of EdU-negative: 5.62 ± 0.91%
[2]; protein concentration 0.205 µM
  percentage of EdU-negative: 5.75 ± 1.2%

## MLQGPGSLLLLFLASHCCLGSARGLFLFGQPDFSYKRSNCKPIPANLQLCHGIEYQNMRLPNLLGHETMKEVLEQAGAWIPLVMKQCHPDTKKFLCSLFAPVCLDDLDETIQPCHSLCVQVKDRCAPVMSAFGFPWPDMLECDRFPQDNDLCIPLASSDHLLPATEEAPKVCEACKNKNDDDNDIMETLCKNDFALKIKVKEITYINRDTKIILETKSKTIYKLNGVSERDLKKSVLWLKDSLQCTCEEMNDINAPYLVMGQKQGGELVITSVKRWQKGQREFKRISRSIRKLQC [Q96HF1]
[1]; [7]
  percentage of EdU-negative: 21.9 ± 2.5%
[1]; [8]
  percentage of EdU-negative: 26.3 ± 1.9%
[2]; [7]
  percentage of EdU-negative: 5.51 ± 0.23%
[2]; [8]
  percentage of EdU-negative: 5.34 ± 0.013%

## MLQGTCSVLLLWGILGAIQAQQQEVISPDTTERNNNCPEKTDCPIHVYFVLDTSESVTMQSPTDILLFHMKQFVPQFISQLQNEFYLDQVALSWRYGGLHFSDQVEVFSPPGSDRASFIKNLQGISSFRRGTFTDCALANMTEQIRQDRSKGTVHFAVVITDGHVTGSPCGGIKLQAERAREEGIRLFAVAPNQNLKEQGLRDIASTPHELYRNDYATMLPDSTEIDQDTINRIIKVMKHEAYGECYKVSCLEIPGPSGPKGYRGQKGAKGNMGEPGEPGQKGRQGDPGIEGPIGFPGPKGVPGFKGEKGEFGADGRKGAPGLAGKNGTDGQKGKLGRIGPPGCKGDPGNRGPDGYPGEAGSPGERGDQGGKGDPGRPGRRGPPGEIGAKGSKGYQGNSGAPGSPGVKGAKGGPGPRGPKGEPGRRGDPGTKGSPGSDGPKGEKGDPGPEGPRGLAGEVGNKGAKGDRGLPGPRGPQGALGEPGKQGSRGDPGDAGPRGDSGQPGPKGDPGRPGFSYPGPRGAPGEKGEPGPRGPEGGRGDFGLKGEPGRKGEKGEPADPGPPGEPGPRGPRGVPGPEGEPGPPGDPGLTECDVMTYVRETCGCCDCEKRCGALDVVFVIDSSESIGYTNFTLEKNFVINVVNRLGAIAKDPKSETGTRVGVVQYSHEGTFEAIQLDDERIDSLSSFKEAVKNLEWIAGGTWTPSALKFAYDRLIKESRRQKTRVFAVVITDGRHDPRDDDLNLRALCDRDVTVTAIGIGDMFHEKHESENLYSIACDKPQQVRNMTLFSDLVAEKFIDDMEDVLCPDPQIVCPDLPCQTELSVAQCTQRPVDIVFLLDGSERLGEQNFHKARRFVEQVARRLTLARRDDDPLNARVALLQFGGPGEQQVAFPLSHNLTAIHEALETTQYLNSFSHVGAGVVHAINAIVRSPRGGARRHAELSFVFLTDGVTGNDSLHESAHSMRKQNVVPTVLALGSDVDMDVLTTLSLGDRAAVFHEKDYDSLAQPGFFDRFIRWIC
[1]; protein concentration 0.013 µM
  percentage of EdU-negative: 27.1 ± 0.99%
[1]; protein concentration 0.13 µM
  percentage of EdU-negative: 27.7 ± 1.8%
[2]; protein concentration 0.013 µM
  percentage of EdU-negative: 6.76 ± 1.4%
[2]; protein concentration 0.13 µM
  percentage of EdU-negative: 50.9 ± 9.9%

## MLQLWKLVLLCGVLTGTSESLLDNLGNDLSNVVDKLEPVLHEGLETVDNTLKGILEKLKVDLGVLQKSSAWQLAKQKAQEAEKLLNNVISKLLPTNTDIFGLKISNSLILDVKAEPIDDGKGLNLSFPVTANVTVAGPIIGQIINLKASLDLLTAVTIETDPQTHQPVAVLGECASDPTSISLSLLDKHSQIINKFVNSVINTLKSTVSSLLQKEICPLIRIFIHSLDVNVIQQVVDNPQHKTQLQTLI [Q96DR5]
[1]; [3]
  percentage of EdU-negative: 27.4 ± 1.7%
[1]; protein concentration 0.225 µM
  percentage of EdU-negative: 27.4 ± 1.2%
[2]; [3]
  percentage of EdU-negative: 4.84 ± 0.42%
[2]; protein concentration 0.225 µM
  percentage of EdU-negative: 4.68 ± 0.1%

Source: the supplement of paper PMC11316812
